B1: F-BAR domain only protein 1 (Homo sapiens), O14526 (parent)
chain: MSYFGEHFWGEKNHGFEVLYHSVKQGPISTKELADFIRERATIEETYSKAMAKLSKLASNGTPMGTFAPLWEVFRVSSDKLALCHLELTRKLQDLIKDVLRYGEEQLKTHKKCKEEVVSTLDAVQVLSGVSQLLPKSRENYLNRCMDQERLRRESTSQKEMDKAETKTKKAAESLRRSVEKYNSARADFEQKMLDSALRFQAMEETHLRHMKALLGSYAHSVEDTHVQIGQVHEEFKQNIENVSVEMLLRKFAESKGTGREKPGPLDFEAYSAAALQEAMKRLRGAKAFRLPGLSRREREPEPPAAVDFLEPDSGTCPEVDEEGFTVRPDVTQNSTAEPSRFSSSDSDFDDEEPRKFYVHIKPAPARAPACSPEAAAAQLRATAGSLILPPGPGGTMKRHSSRDAAGKPQRPRSAPRTSSCAERLQSEEQVSKNLFGPPLESAFDHEDFTGSSSLGFTSSPSPFSSSSPENVEDSGLDSPSHAAPGPSPDSWVPRPGTPQSPPSCRAPPPEARGIRAPPLPDSPQPLASSPGPWGLEALAGGDLMPAPADPTAREGLAAPPRRLRSRKVSCPLTRSNGDLSRSLSPSPLGSSAASTALERPSFLSQTGHGVSRGPSPVVLGSQDALPIATAFTEYVHAYFRGHSPSCLARVTGELTMTFPAGIVRVFSGTPPPPVLSFRLVHTTAIEHFQPNADLLFSDPSQSDPETKDFWLNMAALTEALQRQAEQNPTASYYNVVLLRYQFSRPGPQSVPLQLSAHWQCGATLTQVSVEYGYRPGATAVPTPLTNVQILLPVGEPVTNVRLQPAATWNLEEKRLTWRLPDVSEAGGSGRLSASWEPLSGPSTPSPVAAQFTSEGTTLSGVDLELVGSGYRMSLVKRRFATGMYLVSC
B2: Conserved oligomeric Golgi complex subunit 2 (Homo sapiens), Q14746 (parent)
chain: MEKSRMNLPKGPDTLCFDKDEFMKEDFDVDHFVSDCRKRVQLEELRDDLELYYKLLKTAMVELINKDYADFVNLSTNLVGMDKALNQLSVPLGQLREEVLSLRSSVSEGIRAVDERMSKQEDIRKKKMCVLRLIQVIRSVEKIEKILNSQSSKETSALEASSPLLTGQILERIATEFNQLQFHAVQSKGMPLLDKVRPRIAGITAMLQQSLEGLLLEGLQTSDVDIIRHCLRTYATIDKTRDAEALVGQVLVKPYIDEVIIEQFVESHPNGLQVMYNKLLEFVPHHCRLLREVTGGAISSEKGNTVPGYDFLVNSVWPQIVQGLEEKLPSLFNPGNPDAFHEKYTISMDFVRRLERQCGSQASVKRLRAHPAYHSFNKKWNLPVYFQIRFREIAGSLEAALTDVLEDAPAESPYCLLASHRTWSSLRRCWSDEMFLPLLVHRLWRLTLQILARYSVFVNELSLRPISNESPKEIKKPLVTGSKEPSITQGNTEDQGSGPSETKPVVSISRTQLVYVVADLDKLQEQLPELLEIIKPKLEMIGFKNFSSISAALEDSQSSFSACVPSLSSKIIQDLSDSCFGFLKSALEVPRLYRRTNKEVPTTASSYVDSALKPLFQLQSGHKDKLKQAIIQQWLEGTLSESTHKYYETVSDVLNSVKKMEESLKRLKQARKTTPANPVGPSGGMSDDDKIRLQLALDVEYLGEQIQKLGLQASDIKSFSALAELVAAAKDQATAEQP
B3: Isoform 1 of NF-kappa-B inhibitor beta (Homo sapiens), Q15653-1 (parent)
chain: MAGVACLGKAADADEWCDSGLGSLGPDAAAPGGPGLGAELGPGLSWAPLVFGYVTEDGDTALHLAVIHQHEPFLDFLLGFSAGTEYMDLQNDLGQTALHLAAILGETSTVEKLYAAGAGLCVAERRGHTALHLACRVGAHACARALLQPRPRRPREAPDTYLAQGPDRTPDTNHTPVALYPDSDLEKEEEESEEDWKLQLEAENYEGHTPLHVAVIHKDVEMVRLLRDAGADLDKPEPTCGRSPLHLAVEAQAADVLELLLRAGANPAARMYGGRTPLGSAMLRPNPILARLLRAHGAPEPEGEDEKSGPCSSSSDSDSGDEGDEYDDIVVHSSRSQTRLPPTPASKPLPDDPRPV
partner: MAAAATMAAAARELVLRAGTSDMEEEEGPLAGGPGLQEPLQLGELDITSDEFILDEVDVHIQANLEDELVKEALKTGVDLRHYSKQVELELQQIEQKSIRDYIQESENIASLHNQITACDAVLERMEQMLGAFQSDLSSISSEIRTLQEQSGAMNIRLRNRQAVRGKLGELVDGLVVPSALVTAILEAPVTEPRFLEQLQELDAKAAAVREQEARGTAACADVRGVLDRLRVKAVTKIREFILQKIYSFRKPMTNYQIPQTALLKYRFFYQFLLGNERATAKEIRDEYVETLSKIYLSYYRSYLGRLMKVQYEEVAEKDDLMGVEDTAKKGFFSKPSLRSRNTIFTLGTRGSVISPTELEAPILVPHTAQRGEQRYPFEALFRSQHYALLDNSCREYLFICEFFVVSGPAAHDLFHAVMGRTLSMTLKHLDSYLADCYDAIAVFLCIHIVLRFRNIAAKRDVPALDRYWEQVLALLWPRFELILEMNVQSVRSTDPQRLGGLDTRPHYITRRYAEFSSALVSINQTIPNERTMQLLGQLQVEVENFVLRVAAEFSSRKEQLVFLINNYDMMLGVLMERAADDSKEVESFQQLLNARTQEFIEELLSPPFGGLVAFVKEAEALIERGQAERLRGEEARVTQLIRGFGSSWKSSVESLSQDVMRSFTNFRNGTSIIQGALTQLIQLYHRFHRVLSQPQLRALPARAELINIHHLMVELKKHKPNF
B4: Cdc42 effector protein 4 (Homo sapiens), Q9H3Q1 (parent)
chain: MPILKQLVSSSVHSKRRSRADLTAEMISAPLGDFRHTMHVGRAGDAFGDTSFLNSKAGEPDGESLDEQPSSSSSKRSLLSRKFRGSKRSQSVTRGEREQRDMLGSLRDSALFVKNAMSLPQLNEKEAAEKGTSKLPKSLSSSPVKKANDGEGGDEEAGTEEAVPRRNGAAGPHSPDPLLDEQAFGDLTDLPVVPKATYGLKHAESIMSFHIDLGPSMLGDVLSIMDKEEWDPEEGEGGYHGDEGAAGTITQAPPYAVAAPPLARQEGKAGPDLPSLPSHALEDEGWAAAAPSPGSARSMGSHTTRDSSSLSSCTSGILEERSPAFRGPDRARAAVSRQPDKEFSFMDEEEEDEIRV
B5: Origin recognition complex subunit 6 (Homo sapiens), Q9Y5N6 (parent)
chain: MGSELIGRLAPRLGLAEPDMLRKAEEYLRLSRVKCVGLSARTTETSSAVMCLDLAASWMKCPLDRAYLIKLSGLNKETYQSCLKSFECLLGLNSNIGIRDLAVQFSCIEAVNMASKILKSYESSLPQTQQVDLDLSRPLFTSAALLSACKILKLKVDKNKMVATSGVKKAIFDRLCKQLEKIGQQVDREPGDVATPPRKRKKIVVEAPAKEMEKVEEMPHKPQKDEDLTQDYEEWKRKILENAASAQKATAE
partner: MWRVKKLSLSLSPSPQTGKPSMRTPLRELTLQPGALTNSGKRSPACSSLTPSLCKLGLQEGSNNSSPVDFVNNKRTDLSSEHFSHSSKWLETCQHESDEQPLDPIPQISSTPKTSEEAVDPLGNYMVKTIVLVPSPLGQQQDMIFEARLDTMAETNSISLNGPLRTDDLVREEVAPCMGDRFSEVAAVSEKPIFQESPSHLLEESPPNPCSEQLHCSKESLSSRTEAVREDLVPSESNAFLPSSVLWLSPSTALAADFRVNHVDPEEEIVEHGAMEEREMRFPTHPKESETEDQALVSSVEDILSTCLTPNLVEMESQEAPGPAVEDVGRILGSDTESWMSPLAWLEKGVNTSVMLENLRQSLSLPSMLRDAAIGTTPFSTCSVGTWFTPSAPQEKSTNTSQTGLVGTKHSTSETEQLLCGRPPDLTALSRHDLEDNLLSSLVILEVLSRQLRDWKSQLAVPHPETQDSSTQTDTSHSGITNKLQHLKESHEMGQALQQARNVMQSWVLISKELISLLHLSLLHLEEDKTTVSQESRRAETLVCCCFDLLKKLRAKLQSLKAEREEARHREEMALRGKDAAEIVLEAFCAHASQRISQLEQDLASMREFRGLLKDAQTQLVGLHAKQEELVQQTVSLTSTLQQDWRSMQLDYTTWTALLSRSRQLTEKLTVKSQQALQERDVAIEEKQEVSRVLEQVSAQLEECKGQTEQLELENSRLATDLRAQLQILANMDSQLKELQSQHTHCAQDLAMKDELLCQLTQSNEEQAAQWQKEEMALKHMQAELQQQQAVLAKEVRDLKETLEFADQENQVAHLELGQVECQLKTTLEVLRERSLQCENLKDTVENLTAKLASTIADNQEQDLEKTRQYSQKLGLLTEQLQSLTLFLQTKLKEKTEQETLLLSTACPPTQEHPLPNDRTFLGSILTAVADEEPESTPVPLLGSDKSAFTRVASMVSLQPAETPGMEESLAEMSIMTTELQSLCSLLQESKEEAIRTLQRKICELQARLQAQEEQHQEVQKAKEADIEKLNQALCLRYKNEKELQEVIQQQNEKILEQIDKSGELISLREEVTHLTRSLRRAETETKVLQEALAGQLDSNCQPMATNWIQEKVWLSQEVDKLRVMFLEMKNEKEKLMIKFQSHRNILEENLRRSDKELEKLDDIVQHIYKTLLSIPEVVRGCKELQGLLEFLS

Variants of: B1
Details: with ptk6_human PTK6, Q13882

Variant | effect of a mutation on the interaction
E423G | with no effect

Variants of: B1
Details: with exos5_human EXOSC5, Q9NQT4
exos5_human EXOSC5, Q9NQT4, sequence (Q9NQT4 whole entry): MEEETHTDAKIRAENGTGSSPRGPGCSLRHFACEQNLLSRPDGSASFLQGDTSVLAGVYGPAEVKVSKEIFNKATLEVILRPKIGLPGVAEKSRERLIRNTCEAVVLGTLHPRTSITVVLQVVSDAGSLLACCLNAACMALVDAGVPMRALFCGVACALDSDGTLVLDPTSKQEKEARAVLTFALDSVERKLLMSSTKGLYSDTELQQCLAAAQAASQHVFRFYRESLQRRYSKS

Variant | effect of a mutation on the interaction
E423G | with no effect

Variants of: B2
Details: with mtus2_human MTUS2, Q5JR59
mtus2_human MTUS2, Q5JR59, sequence (Q5JR59 whole entry): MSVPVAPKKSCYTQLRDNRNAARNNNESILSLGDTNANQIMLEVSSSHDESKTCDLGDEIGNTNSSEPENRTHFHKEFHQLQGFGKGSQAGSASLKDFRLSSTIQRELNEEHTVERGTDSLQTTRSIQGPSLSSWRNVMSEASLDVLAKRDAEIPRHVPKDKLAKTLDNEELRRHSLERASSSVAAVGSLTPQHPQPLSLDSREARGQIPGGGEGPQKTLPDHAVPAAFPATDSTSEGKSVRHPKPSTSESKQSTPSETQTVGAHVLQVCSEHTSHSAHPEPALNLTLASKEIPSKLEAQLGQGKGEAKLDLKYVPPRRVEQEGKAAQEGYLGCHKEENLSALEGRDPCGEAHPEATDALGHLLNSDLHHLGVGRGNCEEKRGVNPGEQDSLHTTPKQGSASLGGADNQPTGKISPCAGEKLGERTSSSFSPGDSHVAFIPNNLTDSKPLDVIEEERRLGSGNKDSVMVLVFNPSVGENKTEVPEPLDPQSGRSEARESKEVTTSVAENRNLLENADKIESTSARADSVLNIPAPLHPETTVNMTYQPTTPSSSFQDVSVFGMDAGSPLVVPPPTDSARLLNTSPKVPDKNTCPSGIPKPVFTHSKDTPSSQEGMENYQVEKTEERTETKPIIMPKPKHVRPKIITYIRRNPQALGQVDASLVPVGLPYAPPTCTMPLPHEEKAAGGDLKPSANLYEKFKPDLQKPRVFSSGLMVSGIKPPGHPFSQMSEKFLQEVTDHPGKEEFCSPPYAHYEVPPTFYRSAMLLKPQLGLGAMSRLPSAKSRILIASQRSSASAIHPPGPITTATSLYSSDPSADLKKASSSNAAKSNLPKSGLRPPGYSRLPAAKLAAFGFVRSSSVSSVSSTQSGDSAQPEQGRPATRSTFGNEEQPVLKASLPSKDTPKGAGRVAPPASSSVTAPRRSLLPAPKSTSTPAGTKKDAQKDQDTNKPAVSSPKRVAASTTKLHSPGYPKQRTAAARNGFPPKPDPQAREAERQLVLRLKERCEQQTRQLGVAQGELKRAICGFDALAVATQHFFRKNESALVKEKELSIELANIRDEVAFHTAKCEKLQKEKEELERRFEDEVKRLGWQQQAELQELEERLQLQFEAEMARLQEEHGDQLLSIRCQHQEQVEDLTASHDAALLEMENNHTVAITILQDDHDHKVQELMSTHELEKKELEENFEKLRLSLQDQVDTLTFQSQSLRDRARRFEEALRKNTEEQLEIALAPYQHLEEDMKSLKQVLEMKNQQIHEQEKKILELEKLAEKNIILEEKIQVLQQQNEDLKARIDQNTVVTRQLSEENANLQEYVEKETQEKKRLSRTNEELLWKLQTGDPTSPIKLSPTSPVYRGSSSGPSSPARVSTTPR

Variant | effect of a mutation on the interaction
V589I | with no effect

Variants of: B3
Details: with vps52_human VPS52, Q8N1B4

Variant | effect of a mutation on the interaction
Q69L | with no effect

Variants of: B4
Details: with fam9b_human FAM9B

Variant | effect of a mutation on the interaction
M102V | with no effect

Variants of: B5
Details: with spag5_human SPAG5, Q96R06

Variant | effect of a mutation on the interaction
K201N | with no effect
